# Results reported in patent US10100120B2, “Antibody which specifically binds to human CRTH2” (KYOWA HAKKO KIRIN CO., LTD, priority 2015, dated 2018).
# Substitutions are numbered along the chain they refer to.
# T1: mutated human CRTH2 with amino acid substitution (Homo sapiens, UniProt Q9Y5Y4, G192A)
# T1 construct: inserting genes encoding various mutants with amino acid substitution obtained by deleting termination codons; expressed in transfected cells; host or cells: CHO-S cells (Lifetechnologies), transient (phmAG1-MNLinker vector)
# T1 sequence (Q9Y5Y4 1-395 G192A): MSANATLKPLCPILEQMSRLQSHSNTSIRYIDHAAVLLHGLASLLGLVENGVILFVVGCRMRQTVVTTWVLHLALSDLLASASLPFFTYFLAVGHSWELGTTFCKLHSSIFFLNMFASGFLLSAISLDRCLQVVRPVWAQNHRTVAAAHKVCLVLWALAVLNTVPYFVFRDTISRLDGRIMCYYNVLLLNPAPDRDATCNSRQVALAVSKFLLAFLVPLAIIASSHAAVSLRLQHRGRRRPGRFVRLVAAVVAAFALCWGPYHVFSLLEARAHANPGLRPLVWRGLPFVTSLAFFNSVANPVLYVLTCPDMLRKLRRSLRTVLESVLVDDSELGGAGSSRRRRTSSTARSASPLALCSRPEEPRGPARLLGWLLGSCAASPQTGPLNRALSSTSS
# T2: mutated human CRTH2 with amino acid substitution (Homo sapiens, UniProt Q9Y5Y4, D196A/T198A)
# T2 construct: inserting genes encoding various mutants with amino acid substitution obtained by deleting termination codons; expressed in transfected cells; host or cells: CHO-S cells (Lifetechnologies), transient (phmAG1-MNLinker vector)
# T2 sequence (Q9Y5Y4 1-395 D196A/T198A): T1 sequence (Q9Y5Y4 1-395 G192A) with A192G, D196A, T198A
# B1: LV0HV1: humanized Lym2 antibody, VL LV0 (SEQ ID NO: 33), VH HV1 (SEQ ID NO: 51) (antibody, V domains shown)
# VH: EVQLVESGGGVVQPGRSLRLSCAASGFTFSNYYMAWVRQAPGKGLEWVATISYDGSSTYYRDSVKGRFTISRDNAKNSLYLQMNSLRAEDTATYYCARHRGYYYSGAGYFDYWGQGTMVTVSS
# VL: DIVMTQTPLSLPVTPGESASISCRSSQSLEYSDGYTYLEWYLQKPGQSPQVLIYGVSNRFSGVPDRFSGSGSGTDFTLKISRVEAEDVGVYYCFQATHDPLTFGQGTKLEIK
# Key:
# [1] = target: T1, mutated human CRTH2 with amino acid substitution; test: Epitope analysis using CHO-S cells which express mutated human CRTH2 with amino acid substitution; format: binding; details: mutant G192A; antibody 10 μg/mL; relative to wild-type = 100%
# Procedure, shortened: (§1)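 CHO-S cells transiently expressing alanine-substituted human CRTH2 extracellular mutants, C-terminally Azami-Green tagged, 24 h post-transfection. Antibodies at 10 μg/mL, 4 °C 1 h, then Alexa647 anti-IgG secondary 4 °C 1 h; flow cytometry on Azami-Green-positive cells. Reactivity = Alexa647 intensity divided by Azami-Green intensity.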
# [2] = target: T2, mutated human CRTH2 with amino acid substitution; test: as above; format: binding; details: mutant D196A and T198A; antibody 10 μg/mL; relative to wild-type = 100%
# Procedure, shortened: as §1
molecule,measurement,setting,value
B1,reactivity against cells expressing mutated human CRTH2,[1],lost
same,reactivity against cells expressing mutated human CRTH2,[2],lost
